# In US20050118651A1 (NEURALAB, published 2005):
# Target: T1, synthetic Aβ1-42 peptide (aggregated in the ELISAs) (human, UniProt P05067 672-713)
# T1 construct: range 672-713; It was coated as aggregated peptide in the ELISAs; also called aggregated Aβ1-42; Aβ (1-42) aggregate
# Test: competitive Aβ 1-42 ELISA; competitor biotinylated m12A11Cγ2a at a fixed concentration
binder,measurement,value
"humanized 12A11 version 1 (antibody, V domains shown, Made by transient expression in COS cells; also called h12A11v1; 12A11v1) VH: QVQLVESGGGVVQPGRSLRLSCAFSGFSLSTSGMSVGWIRQAPGKGLEWLAHIWWDDDKYYNPSLKSRLTISKDTSKNTVYLQMNSLRAEDTAVYYCARRTTTADYFAYWGQGTTVTVSS VL: DVVMTQSPLSLPVTPGEPASISCRSSQSIVHSNGNTYLEWYLQKPGQSPQLLIYKVSNRFSGVPDRFSGSGSGTDFTLKISRVEAEDVGVYYCFQSSHVPLTFGQGTKLEIK",fold of IC50 against murine and chimeric 12A11,≤ 2 fold (x IC50)
